Source: patent US20140303084A1 (Biogen, published 2014)
Bridge positions count the residues as written; N and C are the ends. Square brackets hold non-standard residues; d marks the D form. Primed or numbered codes have the meaning given here. Side chains are listed from the residue outwards. Ends that are not written are not given here. * marks the point of attachment. Biotin = O=C1N[C@H]2[C@H](CS[C@H]2CCCCC(=O)*)N1; PEG2(3) = PEG2 spacer carrying biotin on Lys; NMeW = CN[C@@H](Cc1c[nH]c2ccccc12)C(=O)O; NMeY = CN[C@@H](Cc1ccc(O)cc1)C(=O)O; NMeF = CN[C@@H](Cc1ccccc1)C(=O)O; NMeT = CN[C@H](C(=O)O)[C@@H](C)O; NMeL = CN[C@@H](CC(C)C)C(=O)O; NMeS = CN[C@@H](CO)C(=O)O; NMeA = CN[C@@H](C)C(=O)O; PEG2″ = not defined here; PEG = not defined here; PEG4′ = PEG4 spacer; Sar = CNCC(=O)O

Biological target: human Factor IXa (human, UniProt P00740 47-191; P00740 227-461)
Assay: cell-based or functional assay

| Binder | EC50 [µM], FXa generation assay | EC50 [µM], FXa generation assay with hFIXa |
| --- | --- | --- |
| RRAPGKLTCLASYCWLFWTGI[NMeA] (not fully specified (C-terminus, bridges); printed as RRAPGKLTCLASYCWLFWTGI-MeAla; cysteine pairing not given here) [RRAPGKLTCLASYCWLFWTGI-MeAla] | > 1 µM |  |
| RRAPGKLTCLASYCWLFWTG[MeIle]A (not fully specified (C-terminus, bridges); printed as RRAPGKLTCLASYCWLFWTG-MeIle-A; cysteine pairing not given here) [RRAPGKLTCLASYCWLFWTG-MeIle-A] | > 4 µM |  |
| PRIRTVGPGSRSASGKLTCLASYCWLFWTGIA-NH2 (cysteine pairing not given here) [compound 21] |  | < 0.5 µM |
| RRAPGKLTC[dL]ASYCWLFWTGIA (not fully specified (C-terminus, bridges); printed as RRAPGKLTClASYCWLFWTGIA; cysteine pairing not given here) [RRAPGKLTClASYCWLFWTGIA] | > 1 µM |  |
| RRAPGKLTC[NMeL]ASYCWLFWTGIA (not fully specified (bridges); printed as RRAPGKLTC-MeLeu-ASYCWLFWTGIA; cysteine pairing not given here) [RRAPGKLTC-MeLeu-ASYCWLFWTGIA] | > 1 µM |  |
| [PEG4′]RRAPGKLTCLASYCWLFWTGIA (disulfide 10-15 (inferred); not fully specified (C-terminus); printed as PEG4-RRAPGKLTCLASYCWLFWTGIA) [PEG4-RRAPGKLTCLASYCWLFWTGIA] | < 0.5 µM |  |
| RRAPGKLTCLA[dS]YCWLFWTGIA (not fully specified (bridges); printed as RRAPGKLTCLAsYCWLFWTGIA; cysteine pairing not given here) [RRAPGKLTCLAsYCWLFWTGIA] | < 0.5 µM |  |
| RRAPGKL[NMeT]CLASYCWLFWTGIA (cysteine pairing not given here) [RRAPGKL-MeThr-CLASYCWLFWTGIA] | > 1 µM |  |
| RRAPGKL[dT]CLASYCWLFWTGIA (not fully specified (C-terminus, bridges); printed as RRAPGKLtCLASYCWLFWTGIA; cysteine pairing not given here) [RRAPGKLtCLASYCWLFWTGIA] | > 1 µM |  |
| RRAPGKLTCLA[NMeS]YCWLFWTGIA (not fully specified (bridges); printed as RRAPGKLTCLA-MeSer-YCWLFWTGIA; cysteine pairing not given here) [RRAPGKLTCLA-MeSer-YCWLFWTGIA] | < 0.5 µM |  |
| RRAPG[dK]LTCLASYCWLFWTGIA (disulfide 9-14 (inferred)) [RRAPGkLTCLASYCWLFWTGIA] | < 0.5 µM |  |
| RRAPGKLTCLASYC[NMeW]LFWTGIA (cysteine pairing not given here) [RRAPGKLTCLASYC-MeTrp-LFWTGIA] | > 10 µM |  |
| RRAPGKLTCLASYCW[dL]FWTGIA (not fully specified (bridges); printed as RRAPGKLTCLASYCWlFWTGIA; cysteine pairing not given here) [RRAPGKLTCLASYCWlFWTGIA] | > 1 µM |  |
| RRAPGKLTCLASYCWL[dF]WTGIA (not fully specified (C-terminus, bridges); printed as RRAPGKLTCLASYCWLfWTGIA; cysteine pairing not given here) [RRAPGKLTCLASYCWLfWTGIA] | < 0.5 µM |  |
| RRAPGKLTCLASYCWL[NMeF]WTGIA (not fully specified (bridges); printed as RRAPGKLTCLASYCWL-MePhe-WTGIA; cysteine pairing not given here) [RRAPGKLTCLASYCWL-MePhe-WTGIA] | > 1 µM |  |
| RRA[dP]GKLTCLASYCWLFWTGIA (disulfide 9-14 (inferred)) [RRApGKLTCLASYCWLFWTGIA] | < 0.5 µM |  |
| CGGSGGRRAPGKLQCLASYCWLFWTGIAGGSGGC | > 1 µM |  |
| RRAPGKLTCLASYCW[NMeL]FWTGIA (not fully specified (bridges); printed as RRAPGKLTCLASYCW-MeLeu-FWTGIA; cysteine pairing not given here) [RRAPGKLTCLASYCW-MeLeu-FWTGIA] | > 10 µM |  |

| Binder | EC50 [µM], FXa generation assay | EC50 [µM], FXa generation assay with hFIXa |
| --- | --- | --- |
| CRRAPGKLQCLASYCWLFWTGIAC | > 1 µM |  |
| PRI[dR]TVGPGS[dR]SASGKLTCLASYCWLFWTGIA-NH2 (cysteine pairing not given here) [compound 23] |  | < 0.5 µM |
| RRAPGKLTCLASYCWLFWTGI[dA] (not fully specified (C-terminus, bridges); printed as RRAPGKLTCLASYCWLFWTGIa; cysteine pairing not given here) [RRAPGKLTCLASYCWLFWTGIa] | > 1 µM |  |
| CGGSGGRRAPGKLQCLASYCWLFWTGIAC | > 1 µM |  |
| RRK([PEG2″-Biotin])PGKLTCLASYCWLFWTGIA (not fully specified; printed as RRK(PEG2-Biotin)PGKLTCLASYCWLFWTGIA; cysteine pairing not given here) [RRK(PEG2-Biotin)PGKLTCLASYCWLFWTGIA] | < 0.5 µM |  |
| SKQGRPISPD[dR]RAAGKLTCLASYCWLFWTGIA-NH2 (cysteine pairing not given here) [compound 24] |  | < 0.5 µM |
| RR[dA]PGKLTCLASYCWLFWTGIA (not fully specified (bridges); printed as RRaPGKLTCLASYCWLFWTGIA; cysteine pairing not given here) [RRaPGKLTCLASYCWLFWTGIA] | > 1 µM |  |
| RRAPGKLTCLAS[dY]CWLFWTGIA (not fully specified (bridges); printed as RRAPGKLTCLASyCWLFWTGIA; cysteine pairing not given here) [RRAPGKLTCLASyCWLFWTGIA] | < 0.5 µM |  |
| RRAPGKLTCLASYCWLFWT[Sar]IA (not fully specified; printed as RRAPGKLTCLASYCWLFWT-Sar-IA; cysteine pairing not given here) [RRAPGKLTCLASYCWLFWT-Sar-IA] | < 0.5 µM |  |
| CRRAPGKLQCLASYCWLFWTGIAGGSGGC | > 1 µM |  |
| RRAPGKLTCLASY[dC]WLFWTGIA (not fully specified (C-terminus, bridges); printed as RRAPGKLTCLASYcWLFWTGIA; cysteine pairing not given here) [RRAPGKLTCLASYcWLFWTGIA] | > 1 µM |  |
| RK([PEG2(3)-Biotin])APGKLTCLASYCWLFWTGIA (not fully specified (C-terminus); printed as RK(PEG2-Biotin)APGKLTCLASYCWLFWTGIA; cysteine pairing not given here) [RK(PEG2-Biotin)APGKLTCLASYCWLFWTGIA] | < 0.5 µM |  |
| RRAPGKLTCL[dA]SYCWLFWTGIA (not fully specified (bridges); cysteine pairing not given here) [RRAPGKLTCLaSYCWLFWTGIA] | > 1 µM |  |
| RRAPGKLTCLAS[NMeY]CWLFWTGIA (not fully specified (bridges); printed as RRAPGKLTCLAS-MeTyr-CWLFWTGIA; cysteine pairing not given here) [RRAPGKLTCLAS-MeTyr-CWLFWTGIA] | > 1 µM |  |
| RRAPGK[NMeL]TCLASYCWLFWTGIA (not fully specified (bridges); printed as RRAPGK-MeLeu-TCLASYCWLFWTGIA; cysteine pairing not given here) [RRAPGK-MeLeu-TCLASYCWLFWTGIA] | > 1 µM |  |
| RRAPGKLTCLASYCWLFW[dT]GIA (not fully specified (C-terminus, bridges); printed as RRAPGKLTCLASYCWLFWtGIA; cysteine pairing not given here) [RRAPGKLTCLASYCWLFWtGIA] | < 0.5 µM |  |
| E([PEG-Biotin])RAPGKLTCLASYCWLFWTGIA (not fully specified; printed as Glu(Biotinyl-PEG)-RAPGKLTCLASYCWLFWTGIA; cysteine pairing not given here; reading uncertain) [Glu(Biotinyl-PEG)-RAPGKLTCLASYCWLFWTGIA] | > 4 µM |  |
